Data as given in paper PMC5033702.

What was measured:
DDX5 WT (MBP-DDX5-GST) = DDX5 WT (MBP-DDX5-GST) (UniProt P17844 1-614); assay: fluorescence anisotropy
[1] = target: DDX5-K144N (MBP-DDX5-GST) (UniProt P17844 1-614, K144N); assay: fluorescence anisotropy
Sequence of DDX5-K144N (MBP-DDX5-GST) (P17844 whole entry K144N): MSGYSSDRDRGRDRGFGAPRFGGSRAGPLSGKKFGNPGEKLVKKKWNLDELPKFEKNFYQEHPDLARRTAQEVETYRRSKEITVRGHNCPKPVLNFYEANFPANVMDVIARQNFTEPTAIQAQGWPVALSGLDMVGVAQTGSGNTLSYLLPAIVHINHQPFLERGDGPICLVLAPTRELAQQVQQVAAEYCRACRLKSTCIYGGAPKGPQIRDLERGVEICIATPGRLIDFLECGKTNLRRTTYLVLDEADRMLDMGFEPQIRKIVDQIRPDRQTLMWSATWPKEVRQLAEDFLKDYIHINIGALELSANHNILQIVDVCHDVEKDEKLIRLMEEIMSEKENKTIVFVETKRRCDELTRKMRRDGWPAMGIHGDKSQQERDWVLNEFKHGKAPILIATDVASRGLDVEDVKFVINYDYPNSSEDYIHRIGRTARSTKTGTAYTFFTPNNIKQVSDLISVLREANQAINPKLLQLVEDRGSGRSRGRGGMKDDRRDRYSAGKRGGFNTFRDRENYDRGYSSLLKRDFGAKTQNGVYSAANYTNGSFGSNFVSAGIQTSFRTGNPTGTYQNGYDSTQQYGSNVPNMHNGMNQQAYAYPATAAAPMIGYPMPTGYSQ

Sequence of DDX5 WT (MBP-DDX5-GST) (P17844 whole entry): as the sequence (P17844 whole entry K144N) above, with N144K counted along it

B1: 6-FAM ssRNA 16-mer (ssRNA)
RNA: AGCACCGUAAAGACGC
DDX5 WT (MBP-DDX5-GST)
  binding result: binds
[1]
  binding signal: ~4 fold reduced affinity vs WT (nearly 4-fold)
